Test results reported in publication PMC9254699 (2021).
No end group written: not given here.

Experiments:
[1] = molecular target: T1, TGF-β1 (Homo sapiens, UniProt P01137); experiment: SPR
[2] = molecular target: T1, TGF-β1; experiment: SPR; remark: listed apart in the source
[3] = molecular target: T1, TGF-β1; experiment: 125I-TGF-β1 sequestering in 10% serum by peptide-conjugated microspheres
[4] = molecular target: T1, TGF-β1; experiment: sequestering from PRP by peptide-conjugated microspheres

T1 sequence (P01137 279-390): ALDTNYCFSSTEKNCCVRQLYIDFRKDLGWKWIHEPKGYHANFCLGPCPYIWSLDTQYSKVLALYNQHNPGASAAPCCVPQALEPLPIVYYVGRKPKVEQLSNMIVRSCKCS

Binder	Kd [1] [nM]	Kd [2] [nM]	Kd [3] [nM]	Kd [4] [nM]
CIAEIDLIPRDRPF	183	106	–	–
CIAEIDLIPRDRPF (also: conjugated to PEG microspheres)	–	–	~211	~215
CIAEIDLIPRDRPFV [RIP]	98.3	60	–	–
CLIDFRIPADREVPI [Scrambled RIP]	745	765	–	–
